Biological target: pre-hairpin intermediate of gp41 (HIV-1 Env on effector cells) (HIV-1) (UniProt P03377)
Experiment: cell-based or functional assay

N36 peptide gave an IC50, inhibition of HIV Env-mediated cell fusion (vaccinia virus-based reporter gene assay) of 16 µM.
